Test results reported in paper PMC7143960, “Protein Engineering of a Pyridoxal-5′-Phosphate-Dependent L-Aspartate-α-Decarboxylase from Tribolium castaneum for β-Alanine Production” (Molecules, 2020).

How the values were obtained:
[1] = target: T1, TcPanD (PLP-dependent L-aspartate-α-decarboxylase) (Tribolium castaneum, UniProt A7U8C7); assay: enzyme activity versus added PLP; assay type: biochemical; details: 0.1 M phosphate pH 7.0, 37 °C, L-aspartate substrate
T1 sequence (A7U8C7 1-540): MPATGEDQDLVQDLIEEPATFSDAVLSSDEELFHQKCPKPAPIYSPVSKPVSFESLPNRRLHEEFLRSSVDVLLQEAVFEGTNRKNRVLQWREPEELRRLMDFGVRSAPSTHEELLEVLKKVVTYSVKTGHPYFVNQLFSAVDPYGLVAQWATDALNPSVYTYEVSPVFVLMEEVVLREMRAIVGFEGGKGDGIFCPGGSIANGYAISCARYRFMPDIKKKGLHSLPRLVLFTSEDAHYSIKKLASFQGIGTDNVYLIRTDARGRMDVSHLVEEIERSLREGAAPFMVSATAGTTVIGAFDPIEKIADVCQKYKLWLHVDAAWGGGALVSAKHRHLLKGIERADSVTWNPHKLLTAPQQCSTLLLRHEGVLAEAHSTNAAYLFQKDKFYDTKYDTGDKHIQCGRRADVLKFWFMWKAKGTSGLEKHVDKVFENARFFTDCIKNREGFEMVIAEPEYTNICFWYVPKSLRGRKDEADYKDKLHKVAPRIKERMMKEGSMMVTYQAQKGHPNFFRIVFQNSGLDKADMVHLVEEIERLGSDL

N[C@@H](CC(=O)O)C(=O)O = assay: purified protein; assay type: biochemical, Tribolium castaneum; details: 0.1 M phosphate pH 7.0, 37 °C, L-aspartate 0.5-100 mM, apparent parameters
purified protein = substrate: N[C@@H](CC(=O)O)C(=O)O; assay: purified protein; details: 0.1 M phosphate pH 7.0, 37 °C, L-aspartate 0.5-100 mM, apparent parameters

Molecule: Cc1ncc(COP(=O)(O)O)c(C=O)c1O [pyridoxal 5’-phosphate]
- enzyme activity versus added PLP [1]: the enzymatic activities of the two proteins reached the highest levels under the treatment

Molecule: TcPanD (PLP-dependent L-aspartate-α-decarboxylase) (Tribolium castaneum; K305S/R98H)
- Km (N[C@@H](CC(=O)O)C(=O)O): 1230 µM
- Vmax (N[C@@H](CC(=O)O)C(=O)O): 7.05 µmol/min/mg
- kcat (N[C@@H](CC(=O)O)C(=O)O): 7.64 s⁻¹
- kcat/Km (N[C@@H](CC(=O)O)C(=O)O): 6210 M⁻¹ s⁻¹

B1: TcPanD (PLP-dependent L-aspartate-α-decarboxylase) (Tribolium castaneum) (protein)
chain: T1 sequence (A7U8C7 1-540)
- Km (purified protein): 1350 µM
- Vmax (purified protein): 2.88 µmol/min/mg
- kcat (purified protein): 3.12 s⁻¹
- kcat/Km (purified protein): 2310 M⁻¹ s⁻¹
